Measured values: PMC10238197, “Deafness‐Associated ADGRV1 Mutation Impairs USH2A Stability through Improper Phosphorylation of WHRN and WDSUB1 Recruitment” (Advanced Science, 2023)

B1: Flag-WHRN (wild type) [mouse] / Myc-USH2A (usherin, aa 4819-5193) [mouse] (parent complex)
chain 1: MNAQLDGLSVSSSSTGSLGSAAAAAGGGGGAGLRLLSANVRQLHQALTALLSEPEREQFTHCLNAYHARRNVFDLVRTLRVLLDSPVKRRLLPMLRLVIPRSDQLLFDQYTAEGLYLPATTPYRQPAWAAPDGAGPGEVRLVSLRRAKAHEGLGFSIRGGSEHGVGIYVSLVEPGSLAEKEGLRVGDQILRVNDKSLARVTHAEAVKALKGSKKLVLSVYSAGRIPGGYVTNHIYTWVDPQGRSTSPPSSLPQPHGSTLRQREDDRRSTLHLLQSGDEKKVNLVLGDGRSLGLTIRGGAEYGLGIYITGVDPGSEAESSGLKVGDQILEVNGRSFLNILHDEAVKLLKSSRHLILTVKDVGRLPHARTTVDQTKWIASSRIGESVANSAGFPGDHTEEGTSKPGFYKGPAGSQVTLSSLGNQTRALLDDQARHLLTEQERATMMYYLAQYRGGTISVEAMVMALFELLNTHAKFSLLSEVRSIISPQDLDRFDHLVLRREIESMKARQPPGPGVGDTYSMVSYSDTGSSTGSHGTSTTVSSARERLLWLIDLMENTLDLEGTGETTQGSTNALPDVSVDDVKSPSEDLPGIKPPPPPPPLAQGHDRLLGQPRKPGREDPAPLSSAAHSGIVFSAPRNRSPPPGTAPTPGPSSAQDSPSSPIYASISHANPSSRKPLDTHLALVNQHPIGPFPRVQSPPHLKSPPAETPGAGACLPPPSPSEHPDAVGANQHFVLVEVHRPDSEPDVNEVRALPQTRTASTLSQLSDSGQTLSEDSGVDAGETEASTSGRGRQTASAKNKNGKEQPRTERTAEGANKPPGLLEPTSTLVRVRKSAATLGIAIEGGANTRQPLPRIVTIQRGGSAHNCGQLKVGHVILEVNGQTLRGKEHKEAARIIAEAFKTKERDYIDFLVTEFNVML
chain 2: PPSGLSPPQVQTLGSRMASVHWTPPLLPNGVIHSYELQLQRACPPDSAPRCPPSHTERKYWGPGHRASLAGLQPNTAYGVQVVAYNEAGSTASGWTNFSTKKEMPQYQALFSVDSNASMVWVDWSGTFLLNGHLKEYVVTDGGRRVYSGLDTTLYIPRMVDKIFFFQVTCTTDIGSVKTPLVQYDAATGSGLVLTTPGEKKGAGTKSTEFYSELWFIMVMAVVGLILLAIFLSLILQRKIHKEPCIRERPPLVPLQKRMTPLSVYPPGETHVGLADTRLPRSGTPMSIRSSQSVSVLRIPSQSQLSHAYSQSSLHRSVSQLMDMADKKVVTEDSLWETIMGHSSGLYVDEEELMNAIKGFSSVTKEHTAFTDTHL

Variants of: B1
Test: co-immunoprecipitation (band intensity quantified); HEK293 cells; n = 3; parent: 1; read off a plot

Ratio to parent, ~1:
chain 1 S384E
chain 1 S85E
chain 1 S246E
chain 1 S156E
chain 1 S37E
